What all share (test): cell-based or functional assay
In assay [1] the target is APRIL + BAFF in combination (human).
For assay [2], the target named is recombinant human APRIL (human) (UniProt O75888).
Assay [3] addresses APRIL + BAFF in combination (human). The source holds these as a separate data set.
Assay [4] addresses single chain BAFF-APRIL-APRIL heterotrimer (BAA) (human) (UniProt Q9Y275).

The record followed here is US20260250352A1.

Where two headings read alike, the source gives them in different places.

single chain BAFF-APRIL-APRIL heterotrimer (BAA) (human), sequence (Q9Y275 other isoform, or with tags, fused parts or gaps limits assumed): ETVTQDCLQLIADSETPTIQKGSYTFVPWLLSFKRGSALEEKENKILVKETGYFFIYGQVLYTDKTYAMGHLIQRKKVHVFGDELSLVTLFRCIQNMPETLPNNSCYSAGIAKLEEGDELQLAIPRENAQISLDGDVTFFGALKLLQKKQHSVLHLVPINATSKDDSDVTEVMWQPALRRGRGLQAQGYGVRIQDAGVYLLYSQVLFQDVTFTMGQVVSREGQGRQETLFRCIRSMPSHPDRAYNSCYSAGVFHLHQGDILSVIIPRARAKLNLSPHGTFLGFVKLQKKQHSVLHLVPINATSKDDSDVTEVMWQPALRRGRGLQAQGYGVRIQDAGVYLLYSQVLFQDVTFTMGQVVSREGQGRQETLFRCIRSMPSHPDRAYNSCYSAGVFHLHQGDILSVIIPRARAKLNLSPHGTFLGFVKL

B1: 26 TACI CRD2-Fc (Fc fusion)
chain: SLSCRKEQGEYYDHLLRDCISCASICGQHPKQCADFCENKLRSGSGGGGSEPKSSDKTHTCPPCPAPEAEGAPSVFLFPPKPKDTLMISRTPEVTCVVVDVSHEDPEVKFNWYVDGVEVHNAKTKPREEQYNSTYRVVSVLTVLHQDWLNGKEYKCKVSNKALPAPIEKTISKAKGQPREPQVYTLPPSRDELTKNQVSLTCLVKGFYPSDIAVEWESNGQPENNYKTTPPVLDSDGSFFLYSKLTVDKSRWQQGNVFSCSVMHEALHNHYTQKSLSLSPG
Turning to B1, in assay [1], the IC50, Jurkat/NF-kB/TACI reporter is 1.39 nM; the IC50, TACI/Jurkat/NF-kB reporter came out at 3.1 nM; the fold better IC50 than anti-APRIL mAb plus belimumab is 3.5 fold; the fold lower IC50 than telitacicept was over 50 fold.

B2: Belimumab (antibody, INN chains, looked up, V domains shown)
VH: QVQLQQSGAEVKKPGSSVRVSCKASGGTFNNNAINWVRQAPGQGLEWMGGIIPMFGTAKYSQNFQGRVAITADESTGTASMELSSLRSEDTAVYYCARSRDLLLFPHHALSPWGRGTMVTVSS
VL: SSELTQDPAVSVALGQTVRVTCQGDSLRSYYASWYQQKPGQAPVLVIYGKNNRPSGIPDRFSGSSSGNTASLTITGAQAEDEADYYCSSRDSSGNHWVFGGGTELTVLG
B2: the IC50, Jurkat/NF-kB/TACI reporter was 215000 nM in assay [2] and over 100 nM in assay [3]. In addition, the IC50 relative to TACI 30-110-Fc in assay [2] came to 55.8.

B3: Anti-APRIL mAb based on the published VIS649 (sibeprenlimab) sequence (antibody, INN chains, looked up, V domains shown)
VH: QVQLVQSGAEVKKPGASVKVSCKASGYTFTDYTIHWVRQATGQGLEWMGWIYPLRGSINYAQKFQGRVTMTADKSISTVYMELSSLRSEDTAVYFCARHGAYYSNAFDYWGQGTLVTVSS
VL: EIVMTQSPATLSVSPGERATLSCRASESVDNDGIRFLHWYQQKPGQAPRLLIYRASTRATGIPARFSGSGSRTEFTLTISSLQSEDFAVYYCQQSNKDPYTFGGGTKVEIK
In the case of B3, the IC50, TACI/Jurkat/NF-kB reporter in assay [4] was 0.144 nM; in assay [2] it was 5.1 nM.

B4: Anti-APRIL mAb based on the published BION-1301 sequence (antibody, INN chains, looked up, V domains shown)
VH: QVQLVQSGAEVKKPGASVKVSCKASGYTFTDYTIHWVRQATGQGLEWMGWIYPLRGSINYAQKFQGRVTMTADKSISTVYMELSSLRSEDTAVYFCARHGAYYSNAFDYWGQGTLVTVSS
VL: EIVMTQSPATLSVSPGERATLSCRASESVDNDGIRFLHWYQQKPGQAPRLLIYRASTRATGIPARFSGSGSRTEFTLTISSLQSEDFAVYYCQQSNKDPYTFGGGTKVEIK
For B4, in assay [2], the IC50, Jurkat/NF-kB/TACI reporter came to 4.9 nM and the IC50, TACI/Jurkat/NF-kB reporter is 21.9 nM. For the same molecule, in assay [3], the IC50, Jurkat/NF-kB/TACI reporter was over 100 nM and the IC50, TACI/Jurkat/NF-kB reporter was over 200 nM.

B5: Telitacicept, O14836 13-118 (Fc fusion, not shown: a dimerising Fc or GST)
chain: SRVDQEERFPQGLWTGVAMRSCPEEQYWDPLLGTCMSCKTICNHQSQRTCAAFCRSLSCRKEQGKFYDHLLRDCISCASICGQHPKQCAYFCENKLRSPVNLPPEL
modifications: here or on the partner: The drug is a disulfide-linked Fc-fusion homodimer. Only one TACI ECD arm is given, and the Fc is left out.
On to B5, for which, in assay [1], the IC50, Jurkat/NF-kB/TACI reporter came out at 16.8 nM and the IC50, TACI/Jurkat/NF-kB reporter is over 200 nM.
